Target: T1, full-length HA-epitope tagged huBUB1 (plasmid p396-1) (human, UniProt O43683 1-1085)
T1 construct: In vitro translated; precipitated with anti-HA monoclonal antibody and Protein G beads; also called HA-huBUB1; HA-BUB1; not shown: triple HA tag
Assay: anti-HA co-immunoprecipitation of in vitro translated proteins, BUB3 present
Excerpt: ³⁵S-methionine-labeled proteins and polypeptides were then produced from these plasmids by coupled in vitro transcription/translation reactions (IVT), as described above. IVT reactions were immunoprecipitated (IP), using either anti-FLAG agarose beads (Kodak IBI) or anti-HA monoclonal antibody combined with Protein G beads (BMB). Beads were extensively washed as previously described to ensure the removal of non-specifically-associated proteins, including relatively stringent washes in 2 M NaCl buffer. Bound proteins were released from beads by heating samples in SDS-sample buffer and were analyzed on 10-20% SDS-PAGE gels. Aliquots of initial ³⁵S-labeled translation reactions were analyzed as well.

binding result: no binding
B1: wild-type huBUB1 (full-length, plasmid p385-1) (enzyme)
chain: MDTPENVLQMLEAHMQSYKGNDPLGEWERYIQWVEENFPENKEYLITLLEHLMKEFLDKKKYHNDPRFISYCLKFAEYNSDLHQFFEFLYNHGIGTLSSPLYIAWAGHLEAQGELQHASAVLQRGIQNQAEPREFLQQQYRLFQTRLTETHLPAQARTSEPLHNVQVLNQMITSKSNPGNNMACISKNQGSELSGVISSACDKESNMERRVITISKSEYSVHSSLASKVDVEQVVMYCKEKLIRGESEFSFEELRAQKYNQRRKHEQWVNEDRHYMKRKEANAFEEQLLKQKMDELHKKLHQVVETSHEDLPASQERSEVNPARMGPSVGSQQELRAPCLPVTYQQTPVNMEKNPREAPPVVPPLANAISAALVSPATSQSIAPPVPLKAQTVTDSMFAVASKDAGCVNKSTHEFKPQSGAEIKEGCETHKVANTSSFHTTPNTSLGMVQATPSKVQPSPTVHTKEALGFIMNMFQAPTLPDISDDKDEWQSLDQNEDAFEAQFQKNVRSSGAWGVNKIISSLSSAFHVFEDGNKENYGLPQPKNKPTGARTFGERSVSRLPSKPKEEVPHAEEFLDDSTVWGIRCNKTLAPSPKSPGDFTSAAQLASTPFHKLPVESVHILEDKENVVAKQCTQATLDSCEENMVVPSRDGKFSPIQEKSPKQALSSHMYSASLLRLSQPAAGGVLTCEAELGVEACRLTDTDAAIAEDPPDAIAGLQAEWMQMSSLGTVDAPNFIVGNPWDDKLIFKLLSGLSKPVSSYPNTFEWQCKLPAIKPKTEFQLGSKLVYVHHLLGEGAFAQVYEATQGDLNDAKNKQKFVLKVQKPANPWEFYIGTQLMERLKPSMQHMFMKFYSAHLFQNGSVLVGELYSYGTLLNAINLYKNTPEKVMPQGLVISFAMRMLYMIEQVHDCEIIHGDIKPDNFILGNGFLEQDDEDDLSAGLALIDLGQSIDMKLFPKGTIFTAKCETSGFQCVEMLSNKPWNYQIDYFGVAATVYCMLFGTYMKVKNEGGECKPEGLFRRLPHLDMWNEFFHVMLNIPDCHHLPSLDLLRQKLKKVFQQHYTNKIRALRNRLIVLLLECKRSRK
notes: Full-length, untagged protein made in vitro (T7 TnT kit), 35S-methionine-labeled or unlabeled; also called full-length huBUB1; untagged huBUB1
